Experimental data published in patent US8652790B2, “Conformational entropy in molecular recognition” (The Trustees of the University of Pennsylvania, priority 2007, dated 2014).
Read-outs that look alike come from different tables or passages of the source.

Key:
[1] = biological target: T1, calcium-saturated calmodulin (CaM) (Homo sapiens, UniProt P0DP23); conditions: cited from earlier work; for −TΔSbind: Binding entropy at 308 K (Table 3), values cited per Table 2 footnotes; for −TΔSbinding^total: ITC, 308 K, from Marlow & Wand or Frederick et al.
T1 construct: made in house

[2] = biological target: T1, calcium-saturated calmodulin (CaM); experiment: Deuterium NMR relaxation of methyl-bearing side chains of target domains bound to CaM; conditions: residue L20 of the bound target domain
Source text: Using deuterium NMR relaxation methods, fast motion of the methyl-bearing side-chains of the target domains in the six CaM complexes were examined. Muhandiram, D. R. et al., Measurement of H-2 T-1 and T-1p relaxation-times in uniformly C-13-Labeled and fractionally H-2-labeled proteins in solution. J. Am. Chem. Soc. 117, 11536-11544 (1995).
All bound target domain methyl resonances are well resolved in ^13C-single quantum heteronuclear correlation (^13C-HSQC) NMR spectra and deuterium relaxation parameters could be measured with high precision. The 76 methyl order parameters from 52 residues of the target domains in the six complexes are heterogeneously distributed with O^2axis values ranging from 0.13 to 0.95 (FIG. 5). […]
O^2axis parameters were determined from T1 and T1p deuterium relaxation (Muhandiram, D. R. et al. Measurement of H-2 T-1 and T-1p relaxation-times in uniformly C-13-Labeled and fractionally H-2-labeled proteins in solution. J. Am. Chem. Soc. 117, 11536-11544 (1995)) measured at two magnetic fields. Rotational correlation times and O^2NH were determined from ^15N relaxation (Farrow, N. A. et al. Backbone dynamics of a free and a phosphopeptide-complexed Src homology-2 domain studied by ^15N NMR relaxation. Biochemistry 33, 5984-6003 (1994)) obtained at two magnetic fields. O^2CαCO parameters were determined by transverse cross-correlated relaxation. […]

[3] = biological target: T1, calcium-saturated calmodulin (CaM); experiment: Isothermal titration calorimetry of target domain peptides binding to calcium-saturated calmodulin; conditions: for −TΔSbind: Binding entropy at 308 K (Table 3); for −TΔSbinding^total: ITC, 308 K, pH 6.5, 100 mM KCl, 6 mM CaCl2, standard errors
Source text: NMR methods are herein used to determine the dynamic response of human CaM (GenBank AAD45181) to the binding of six peptides representing the calmodulin-binding domains of the smooth muscle myosin light chain kinase (smMLCK; AAA69964) (Lukas, T. J. et al. Calmodulin binding domains: characterization of a phosphorylation and calmodulin binding site from myosin light chain kinase. Biochemistry 25, 1458-1464 (1986)), the neuronal and endothelial nitric oxide synthases (nNOS and eNOS; AAB60654 and AAH63294, respectively) (Zhang, M. & Vogel, H. J. Characterization of the calmodulin-binding domain of rat cerebellar nitric oxide synthase. J. Biol. Chem. 269, 981-985 (1994)), the calmodulin kinase kinase (CaMKKα; EDM05132) (Tokumitsu, H. et al. Calcium/calmodulin-dependent protein kinase kinase: identification of regulatory domains. Biochemistry 36, 12823-12827 (1997)), the calmodulin kinase I (CaMKI; EAW63990) Goldberg, J., Nairn, A. C. & Kuriyan, J. Structural basis for the autoinhibition of calcium/calmodulin-dependent protein kinase I. Cell 84, 875-887 (1996)) and the phosphodiesterase (PDE; AAD40738 (SEQ ID NO: 8)) Goldberg, J., Nairn, A. C. & Kuriyan, J. Structural basis for the autoinhibition of calcium/calmodulin-dependent protein kinase I. Cell 84, 875-887 (1996)).
Four of the peptides have been found previously by isothermal titration calorimetry to have roughly the same affinity for calmodulin but with widely different thermodynamic parameters defining the free energy of association. Wintrode, P. L. & Privalov, P. L. Energetics of target peptide recognition by calmodulin: a calorimetric study. […] J. Biol. Chem. 276, 14083-14091 (2001). The present study repeats isothermal titration calorimetry measurements at a temperature (35° C.) that is more optimal for solution NMR spectroscopy, and characterizes the thermodynamics of binding of two additional domains (FIG. 1). Shown in FIG. 1 are the Gibbs free energy (ΔG), enthalpy (ΔH) and entropy (−TΔS) for the formation of the six calcium-saturated CaM-peptide complexes at 35° C., as determined by isothermal titration calorimetry.
Calmodulin and synthetic peptides and complexes were prepared as described previously (Kranz, J. K. et al. A direct test of the reductionist approach to structural studies of calmodulin activity: relevance of peptide models of target proteins. J. Biol. Chem. 277, 16351-16354 (2002)) in 20 mM imidazole (pH 6.5), 100 mM KCl, 6 mM CaCl2 and 0.02% (w/v) NaN3. NMR samples were slightly (˜10%) over-titrated with peptide to ensure full complex formation. […] Data were obtained with a VP-isothermal titration calorimeter (Microcal) and analysed with the Origin (v.5) software.

AKSKWKQAFNATAVVRHMRKLQ (listed as Homo sapiens) [CaMKI(p)]
−TΔSbind [1]: +69.6 ± 0.9 kJ/mol
−TΔSbinding^total [1]: +69.6 ± 0.9 kJ/mol

(COOH-FPNGFSRKRLMSKVLIVTTWSPLL [CaMKKα(p)]
−TΔSbind [1]: +90.0 ± 1.0 kJ/mol
−TΔSbinding^total [1]: +90.0 ± 1.0 kJ/mol

QTEKMWQRLKGILRSLVKQ [PDE(p)]
O^2axis [2]: 0.165
−TΔSbind [3]: +33.9 ± 0.7 kJ/mol
−TΔSbinding^total [3]: +33.9 ± 0.7 kJ/mol

RKKTFKEVANAVKISASLMG [eNOS(p)]
−TΔSbind [3]: +25.7 ± 0.8 kJ/mol
−TΔSbinding^total [3]: +25.7 ± 0.8 kJ/mol
